Where a chain is given by its changes, count along the chain named.
B1: PG9e-ferritin (ZM109): ferritin particle displaying the minimal PG9 epitope (gp120 154-177) of HIV-1 strain ZM109 (protein)
chain: MLSKDIIKLLNEQVNKEMQSSNLYMSMSSWCYTHSLDGAGLFLFDHAAEEYEHAKKLIIFLNENNVPVQLTSISAPEHKFEGLTQIFQKAYEHEQHISESINNIVDHAIGVKHSSFNITTDVKDRKQKVNATFYGKDHATFNFLQWYVAEQHEEEVLFKDILDKIELIGNENHGLYLADQYVKGIAKSRKS
B2: 2zjr_a: minimal PG9 epitope-scaffold, SEQ ID NO: 17, native scaffold PDB 2ZJR (protein)
chain: SHYDILQAPVISEKAYSAMERGVYSFWVSPGATKTEIKDAIQQAFGVRVIGISVKHCSFNITTDVKDRKQKVNATFAIVRLAEGQSIEALAGQ
modifications: Human immunodeficiency virus
B3: 2ZJR: 2ZJR epitope-scaffold of FIG. 58; legend leaves open whether 2ZJR_A or 2ZJR_B (protein)
chain: B2 chain
B4: 2zjr_b: minimal PG9 epitope-scaffold, SEQ ID NO: 18, native scaffold PDB 2ZJR (protein)
chain: B2 chain with V54T, C57A
modifications: Human immunodeficiency virus
B5: 1vh8_c: minimal PG9 epitope-scaffold, SEQ ID NO: 65, native scaffold PDB 1VH8 (protein)
chain: SLIRIGHGFDVHAFGKHASFNITTDVKDRKQKVNATFGFIAHSDGDVALHALTDAILGAAALGDIGKLFPKNADSRGLLREAFRQVQEKGYKIGNVDITIIAQAPKMRPHIDAMRAKIAEDLQCDIEQVNVKATTTEKLGFTGRQEGIACEAVALLIRQ
modifications: Human immunodeficiency virus
B6: 1vh8 b: minimal PG9 epitope-scaffold, SEQ ID NO: 64, native scaffold PDB 1VH8 (protein)
chain: B5 chain with G15V, G38Y
modifications: Human immunodeficiency virus
B7: 1vh8_a: minimal PG9 epitope-scaffold, SEQ ID NO: 63, native scaffold PDB 1VH8 (protein)
chain: B5 chain with G15V, A18C, G38Y
modifications: Human immunodeficiency virus
B8: PG9e-encapsulin (ZM109): encapsulin particle displaying the minimal PG9 epitope (gp120 154-177) of HIV-1 strain ZM109 (protein)
chain: MEFLKRSFAPLTEKQWQEIDNRAREIFKTQLYGRKFVDVEGPYGWEYAAHPLGEVEVVKHSSFNITTDVKDRKQKVNATFGLRKSLPLIELRATFTLDLWELDNLERGKPNVDLSSLEETVRKVAEFEDEVIFRGCEKSGVKGLLSFEERKIECGSTPKDLLEAIVRALSIFSKDGIEGPYTLVINTDRWINFLKEEAGHYPLEKRVEECLRGGKIITTPRIEDALVVSERGGDFKLILGQDLSIGYEDREKDAVRLFITETFTFQVVNPEALILLK
B9: 1t0a_a: minimal PG9 epitope-scaffold, SEQ ID NO: 77, native scaffold PDB 1T0A (protein)
chain: KIRIGHGFDVHKFGKHASFNITTDVKDRKQKVNATFGLVAHSDGDVVLHAISDAILGAMALGDIGKHFPDTDAAYKGADSRVLLRHCYALAKAKGFELGNLDVTIIAQAPKMAPHIEDMRQVLAADLNADVADINVKATTTEKLGFTGRKEGIAVEAVVLLSRQG
modifications: Human immunodeficiency virus
B10: 3pyr_a: minimal PG9 epitope-scaffold, SEQ ID NO: 76, native scaffold PDB 3PYR (protein)
chain: MKTAYDVILAPVLSEKAYAGFAEGKYTFWVHPKATKTEIKNAVETAFKVKVVKVNTKHASFNITTDVKDRKQKVNATFAIVQVAPGQKIEALEGLIG
modifications: Human immunodeficiency virus
B11: 2vxs_a: minimal PG9 epitope-scaffold, SEQ ID NO: 37, native scaffold PDB 2VXS (protein)
chain: TNPKRSSDYYNRSTSPWNLHRNEDPERYPSVIWEAKCRHLGCINADGNVDYHMNSISQNITTDVKDRKQKVNATCTCVTPIVH
modifications: Human immunodeficiency virus
B12: 1x3e_C: minimal PG9 epitope-scaffold, SEQ ID NO: 68 in Table 2 (SEQ ID NO: 67 in b296), native scaffold PDB 1X3E (protein)
chain: GDTTITVVGNLTADPELRFTPSGAAVANFTVASTGSALFLRCNIWREAAENVAESLTRGSRVIVTGRLCVKHASFNITTDVKDRKQKVNATFYCVEVDEIGPSLR
modifications: Human immunodeficiency virus
B13: 1x3e_a: minimal PG9 epitope-scaffold, SEQ ID NO: 66, native scaffold PDB 1X3E (protein)
chain: B12 chain with C69K, A73C, C94E
modifications: Human immunodeficiency virus
B14: 2f7s_B: minimal PG9 epitope-scaffold, SEQ ID NO: 52, native scaffold PDB 2F7S (protein)
chain: DYDYLIKLLALGDSGVGKTTFLYRYTDNKFNPKFITTVGIDVKHASFNITTDVKDRKQKVNATFYDTAGQERFRSLTTAFFRDAMGFLLMFDLTSQQSFLNVRNWMSQLQANAYCENPDIVLIGNKADLPDQREVNERQARELADKYGIPYFETSAATGQNVEKAVETLLDLIMKRMEQCVE
modifications: Human immunodeficiency virus
B15: 2f7s_C: minimal PG9 epitope-scaffold, SEQ ID NO: 53, native scaffold PDB 2F7S (protein)
chain: B14 chain with D41C, D66C
modifications: Human immunodeficiency virus
B16: 1YN3_A: minimal PG9 epitope-scaffold, SEQ ID NO: 28, native scaffold PDB 1YN3 (protein)
chain: GSHVSFNITTDVKDRKQKVNATFYKNQNISYKDLEGKVKSVLESNRGITDVDLRLSKQAKYTVNFKNGTKKVIDLKSGIYTANLINSSDIKSININID
modifications: Human immunodeficiency virus

Experiments:
Assay type in all cases: binding, human
PG16 = assay: Immunoprecipitation of protein nanoparticles with PG16; conditions: Protein A agarose, SDS-PAGE, Coomassie stain
Experimental: (§1) The minimal PG9 epitope (residues 154-177) or variations thereof, were inserted or fused to ferritin, encapsulin or SOR genes using the schemes shown in FIG. 59. The expression plasmids were transfected into HEK293 cells grown in the presence of swainsonine, or transfected into HEK293 GnTI^−/− cells. Particles were purified from the media using lectin affinity chromatography (snow drop lectin from Galanthus nivalis) followed by size-exclusion chromatography. Binding experiments were performed by incubating purified particles or particle-containing expression supernatant with the listed antibodies (PG9, PG16, VRC01) and Protein A agarose resin. After this incubation, the resin was pelleted and washed several times, and then incubated with SDS-containing buffer at 100 C. The solubilized and denatured proteins were separated by SDS-PAGE and visualized with Coomassie stain.

PG9 = assay: Immunoprecipitation of protein nanoparticles with PG9; conditions: Protein A agarose, SDS-PAGE, Coomassie stain
Experimental: as §1

monoclonal antibody PG9 = assay: ELISA of minimal epitope scaffolds with PG9; conditions: GnTI- cell expression
Experimental: (§2) The supernatants of all wells expressing minimal epitope scaffolds were tested for binding to PG9, CH01, CH03, PGT145 and PGT142 antibodies through ELISA assays in which the supernatant was diluted 5-fold in PBS and incubated on nickel coated plates. […] Some, such as 2ZJR_A, were run over a protein A column coated in PG9 which was subsequently cleaved from the column resulting in an eluted complex consisting of the scaffolds and the PG9 Fab.

PG9 Fab = assay: Gel filtration of epitope scaffold complex with PG9 Fab
Experimental: as §2

| Molecule | binding to monoclonal antibody PG9 (monoclonal antibody PG9) | other results |
| --- | --- | --- |
| B1 |  | immunoprecipitation by PG16 (PG16): interacts; immunoprecipitation by PG9 (PG9): immunoprecipitate |
| B2 | bind | complex with PG9 Fab through gel filtration (PG9 Fab): intact complex |
| B3 |  | complex with PG9 Fab through gel filtration (PG9 Fab): forms a stable complex |
| B4 | bind |  |
| B5 | bind |  |
| B6 | bind |  |
| B7 | bind |  |
| B8 |  | immunoprecipitation by PG9 (PG9): immunoprecipitate |
| B9 | bind |  |
| B10 | bind |  |
| B11 | bind |  |
| B12 | bind |  |
| B13 | bind |  |
| B14 | bind |  |
| B15 | bind |  |
| B16 | bind |  |
